Results reported in US20060275811A1 (CANON, published 2006).

Target: T1, hen egg-white lysozyme (hen, UniProt P00698 19-147)
T1 construct: mature; also called HEL; target substance
Experiment: SPR (BIAcore X), HEL amine-coupled to CM5 chip, polypeptide at 50, 100 and 200 nM in PBS-T
Procedure: The strains are cultured at 30° C. for 16 hours in ampicillin (100 μg/ml)-selective LB medium. IPTG is added thereto at the final concentration of 1 mM, followed by additional 16-hour culture to induce protein expression. The bacterial cells collected by centrifugation are subjected to osmotic pressure treatment (the bacterial cells are mixed with 0.5 M sucrose solution and supplemented with a 5-fold volume of pure water) and disrupted by French press to obtain as soluble fractions, the proteins of interest present in the E. coli periplasms. Next, the functional polypeptide chains are purified with HEL columns (HEL is adsorbed and immobilized onto CNBr-activated Sepharose 4B (Code No. 17-0430-01 (Amersham)); the immobilization is performed according to the accompanying protocol). The binding ability between the functional polypeptides and the target substances (HEL) is evaluated by using BIAcore (registered trademark) X (SPR measurement apparatus). […] Next, the molarity of the functional polypeptide chain is adjusted to 50 nM, 100 nM and 200 nM for the first functional polypeptide chain (HyHEL10 scFv-(G4S)3-WinZipA1), the second functional polypeptide chain (D1.3 scFv-(G4S)3-WinZipB1) and a 1:1 mixture of the first and second functional polypeptide chains by using PBS-T (0.1% Tween 20) buffer. […]

T1 sequence (P00698 19-147): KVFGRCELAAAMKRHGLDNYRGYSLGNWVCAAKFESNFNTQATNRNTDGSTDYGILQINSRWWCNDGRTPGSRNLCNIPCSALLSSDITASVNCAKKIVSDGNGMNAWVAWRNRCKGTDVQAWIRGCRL

Kd: 0.3 nM
B1: HyHEL10 scFv-(G4S)3-WinZipA1 (scFv)
scFv: DIQLQESGPSLVKPSQTLSLTCSVTGDSITSDYWSWIRKFPGNRLEYMGYVSYSGSTYYNPSLKSRISITRDTSKNQYYLDLNSVTTEDTATYYCANWDGDYWGQGTLVTVSAGGGGSGGGGSGGGGSDIVLTQSPATLSVTPGNSVSLSCRASQSIGNNLHWYQQKSHESPRLLIKYASQSISGIPSRFSGSGSGTDFTLSINSVETEDFGMYFCQQSNSWPYTFGGGTKLIITAGGGGSGGGGSGGGGSTVAQLEEKVKTLRAQNYELKSRVQRLREQVAQLA
notes: Secreted from E. coli with the pelB signal of a modified pET-20b(+) vector and purified on a HEL column; also called first functional polypeptide chain; first polypeptide chain
